Laboratory results: publication PMC4113602
Like-named read-outs stand apart in the source and are kept apart here.

Assays:
[1] = target: E-cadherin ECD (Mus musculus) (UniProt P09803); conditions: cited from earlier work
[2] = target: E-cadherin ECD (Mus musculus) (UniProt P09803); conditions: cited from earlier work; remark: listed apart in the source
[3] = target: W2A E-cadherin/ATH monomer (E-cadherin extracellular domains EC1-EC5, W2A, N20C); assay: single molecule AFM force measurement
[4] = target: W2A E-cadherin/ATH monomer (E-cadherin extracellular domains EC1-EC5, W2A, N20C); assay: FRET or BRET
[5] = target: W2A E-cadherin/ATH monomer (E-cadherin extracellular domains EC1-EC5, W2A, N20C); assay: cross-linking

Substance	Kd [1]	Kd [2]	bond strength (unbinding force) [3]	FRET efficiency (peak) [4]	cross-linked dimer yield [5]
E-cadherin ECD (from UniProt P09803)	0.72 mM	10 mM	–	–	–
W2A E-cadherin/ATH monomer (E-cadherin extracellular domains EC1-EC5, W2A, N20C) (domain or fragment)	–	–	17 pN	0.74	20%
